# From the DeepSol protein solubility set
# Assay: soluble on expression in E. coli; label from the status in PepcDB or PDB records
row,Sequence,soluble on expression in E. coli
1,MIQLEKLTKHFGTKRVVHDASAQFDKGQVTAIIGPNGAGKSTLLSMASRLVNRDAGKVWIEQRELVEWNTKALAQKLAVLRQSNVLNMRFTVRELTAFGRFPYSQGKLTTQDEQIINQAIEYLDLETIQYQYLDELSGGQRQLAFIAMVMAQDTDYVFLDEPLNNLDIKHSLQIMSTLRRLAHELNKAVVVVIHDINFASCYADKIVALKKGEVVATGSVRDVIQSEVLSAIYDTPFNVIEMQGQRLCLYTLPT,not soluble
2,MAHHHHHHMNRIPAATRNAPMYATAMSQFAVCRQPWNEYISLLTKDDAQPFHTTPQEKPAYRGRKRGREGWLFGQQVQLHYHRFPDEQLFTNLTRWRMGDTVGDVAIQQFRNAQPFDIEDKDPQGFQRPAPEVYMKLNYKNPATISRFLTRTGHMYPQDIMPLNPEAVVKLRVAKAQAIRIGLYPRFGNPFWFRSQSFRPKAYQENYDPTTYSTKHTMEHFAYNWVQTDRIRQYFKGLEELHQSRRATASSGGGGVTSEHKQQSQLYALDNMSIEMHRNAPSYRADVERSIKKPTVPGLMSTKGMKKKFHNLYSSTSTKRMGFSNPTLGIKKV,not soluble
3,MGSDKIHHHHHHMDTDLLRAFVTVAECEGFSAAGKVLHRTQSAVSLQIKRLEDQMGESLFERTSRSVVLTPPGGRLLPYARHILKLQDEARRVMGVDRQGELIRLGTSEEQASTYLPELLPRFAARFPEVRLEVSCSISGSLVHDFQEGLLDVALVVRHGPTQTGRLLGREPMVWVVAEDRAIDDWEILPLALNPEGCIFRAHAFAALGPTERRWDVRYSSRSPTGINLPVQAGLAATVKTPRSVPEGCRIVGEEEGLPPLGHVEIEMHRTPGHSSDAFVAFCDELEHIVTATDSLESLEYVAAEG,not soluble
4,MGSDKIHHHHHHMKQILFMDTTLRDGEQSPGVNLNEQEKLQIARQLERLGIHVMEAGFAAASEGDFQSVKRIANTIQNATVMSLARAKESDIRRAYEAVKGAVSPRLHVFLATSDIHMKYKLCMSKEDVLDSIHRSVTLGKSLFPTVQFSAEDATRTARDFLAEAVEVAIRAGANVINIPDTVGYTNPEEYYSLFKYLQESVPSYEKAIFSCHCHDDLGMAVANSLAAVEGGALQVEGTINGIGERAGNAALEEVAVALHIRKDFYQAEPSMTLKEIKATSTLVSRLTGMVVPKNKAIVGANAFAHESGIHQDGVLKEVTTYEIIEPELVGESQNLFVLGKHSGRHAFTEKMKELGYEFTTEERDAVFEAFKKLADRKKEITEEDLRALMLGEAAFAAQQYNITQLQVHFVSNSTQCATVVLKDEEGNVFEDAATGSGSIEAIYNAIQRILGLECELADYRIQSITQGQDALAHVHVELKEGTHQVSGFGVAQDVLEASARAYVHAAGKLKSFIQLVK,not soluble
5,MGSDKIHHHHHHMEAVKTGIEGFDDIFGGFYRGQIILIAGNPGSGKTTFCAKFLYEGARRFGENGLYISIGESKEEFYEYMKKLGMDFEKLEKTGSFKYVEMLAPTSEDALMQLSRELTKNALELKATRIVIDSISPILSMNPETARAILHNALKTISRELKSVVLMTEEMPIGETRIGQGIEEFVVDGVIVLRLEVPEAGAPVRTMSVLKLRGKPLDRAVYNFEIGPPSGVRVLMHGIEELESNIDFNNKIATGIDGFDELLGGGIIRGTATAFVGPSGGGKTVLMLSAAANVAINGENVTYISFEEPRQQIEETLKFLGYGEVEGLEILSLNPRMISLRALYDILSKTVLDHRTMLFIDGLNAIRREFGEAFHRVVRDVVFQMKKNGITVVISLIGGTIKETLLSTIVDNVVELRVVEKDGELRREIAVRKARMSRASNEVKRLVFDGKPAVR,not soluble
6,MEEWIQYARDMAKAEKELEIELWVIISFYRTTEQGGKVLLFRYDLPRKVADKYDWVVRWRRARLTCQYPKGNVTHTYCLYDRHSGEDYSFGSCLSSLAAAKAQVTRMERRIREYTTWQKQNNLFFDEQTDEMLQKAVTKLKIKKENVQEAERRLQRKAEKHQREMRK,not soluble
7,MGSDKIHHHHHHMTETWNFINTGSKDPYYNMAMDEALLNFVSRGEIDPVIRFYTWNPATLSIGYFQRLQKEIDIDKVKEKGFGLVRRQTGGRGVLHDKELTYSVIVPESHPNMPSTVTEAYRVISQGLLEGFKNLGFNTYFAVPKTPEERQKLKQPRSSVCFDAPSWYELVVEGRKIAGSAQTRQKGVILQHGSILQDIDIDELFDMFIYKNERLKLKMKEAFVEKAVAINDISDKHITISQMEEAFEKGFKKGLNIELKPLELTEAQLAEVEELTEKYRSDEWMFRK,not soluble
8,MCTSLTLETKNGQHLFARTMDFTLDMNQEVIIIPRHYQWNNITGEIINTKHATVGMGINHQGRIIMADGVNEAGMTCATLYFPGFATYSQSIDDNTTNLAPFDFVTWSLTQFNSVKELKKSVDSITFLDIPLPDLGLTPPLHWILADKWGDCIVLDPTSEGLKLYDNPLGVMTNSPEFNWHLQNLRQYIGLKSQPFAPTEWSNLPLSAFGQGSGSMGLPGDFTPPSRFVRAAYGKQNIQGIDSEEEGVSALFHILSNCEVPKGGVITEEGALDNTIYTSVMCMESGTYYYHTYDCRQIIAVHLFHENLDTDEIKAYPFQRKQKIFYEN,not soluble
9,MFERVREDIQSVFHRDPAARNALEVLTCYPGLHAVWLHRLAHGLWTSGWKWLARLVSNFGRWMTGIEIHPGARIGRRFFIDHGMGIVIGETAEIGDDVTLYQGVTLGGTTWNKGKRHPTLGNNVVVGAGAKVLGPFTVGEGAKVGSNAVVTKEVPPGATVVGIPGRIIMREDSEQQAKRQAMAEKLGFDAYGVSQDMPDPVARAIGQLLDHLQAVDGRLEGMCQALTALGSDYCAKDLPVLREEDFAGVKDEDGNPAALEHHHHHH,soluble
10,VSLEDYNLSEDLKVRLDSAEGIFVSGAPGSGKSTFVSALAERYKNMDKIVKTMESPRDLQVDEEITQYAPLEGSMEKTCDILLLVRPDYTIYDEVRKTKDFEIFADMRMAGVGMVGVVHASKAIDSIQRLIGRVELGIIPQIVDTVVFIENGKIGKVYEVEFNVKVPH,not soluble
11,TETSPDKWLIDGDTPLDEVERAIGYELPEGDYETISGLLFDHANALLKTGDVIEIPLDFEPEDYLNNTSPTQRILRITVLEVERNVPVKLALALLEDHPDNHPAPKENR,soluble
12,MSGFSTEERAAPFSLEYRVFLKNEKGQYISPFHDIPIYADKDVFHMVVEVPRWSNAKMEIATKDPLNPIKQDVKKGKLRYVANLFPYKGYIWNYGAIPQTWEDPGHNDKHTGCCGDNDPIDVCEIGSKVCARGEIIGVKVLGILAMIDEGETDWKVIAINVDDPDAANYNDINDVKRLKPGYLEATVDWFRRYKVPDGKPENEFAFNAEFKDKDFAIDIIKSTHDHWKALVTKKTNGKGISCMNTTLSESPFKCDPDAARAIVDALPPPCESACTVPTDVDKWFHHQKN,soluble
13,MSLSKAKTLYEKIYDAHVVVAAPGETPILYIDRHLVHEVTSPQAFDGLREKGRPVRQVSKTFATMDHNVSTTTKDINASGEMARIQMQTLSKNCEEFGVTLYDINHKYQGIVHVMGPELGITLPGMTIVCGDSHTATHGAFGSLAFGIGTSEVEHVLATQTLKQGRAKTMKIEVRGKVAPGITAKDIVLAIIGKTTAAGGTGYVVEFCGEAIRDLSMEGRMTVCNMAIELGAKAGLIAPDATTFNYIKGRKFAPQGSDWDAAVDYWQTLKTDEDAQFDAVVTLEASEIKPQVTWGTNPGQVIAVDEPIPSPSQFADPVERSSAEKALAYMGLEAGKMLSDYKVDKVFVGSCTNSRIEDMRAAAAVAKGKKVASHVQALIVPGSEQVKAQAEAEGLDKIFIEAGFEWRLPGCSMCLAMNNDRLGPGERCASTSNRNFEGRQGRDGRTHLVSPAMAAAAAIAGHFVDIRQEGHHHHHH,soluble
14,MGSDKIHHHHHHMENFVFHNPTKIVFGRGTIPKIGEEIKNAGIRKVLFLYGGGSIKKNGVYDQVVDSLKKHGIEWVEVSGVKPNPVLSKVHEAVEVAKKEKVEAVLGVGGGSVVDSAKAVAAGALYEGDIWDAFIGKYQIEKALPIFDVLTISATGTEMNGNAVITNEKTKEKYGVSSKALYPKVSIIDPSVQFTLPKEQTVYGAVDAISHILEYYFDGSSPEISNEIAEGTIRTIMKMTERLIEKPDDYEARANLAWSATIALNGTMAVGRRGGEWACHRIEHSLSALYDIAHGAGLAIVFPAWMKYVYRKNPAQFERFAKKIFGFEGEGEELILKGIEAFKNWLKKVGAPVSLKDAGIPEEDIDKIVDNVMLLVEKNLKPKGASLGRIMVLEREDVREILKLAAK,soluble
15,VADEYKWALASIYETDDEWEAAFEDVQAELDALNDYEGRLTEDGETLLAALELRDAVYRDAKTVSAYASMRSDEDTRDQEYQALQARGASLMTDVSSATSFFDPELQACTREQLQSMIEETPELAAYEHYFDDVLRMKPHTRSAEVEGLLSELGEVFGAPSDAYNMLTDADLEFPTVEDPAGDAVEISQSN,soluble
16,MGSDKIHHHHHHMIPEKRIIRRIQSGGCAIHCQDCSISQLCIPFTLNEHELDQLDNIIERKKPIQKGQTLFKAGDELKSLYAIRSGTIKSYTITEQGDEQITGFHLAGDLVGFDAIGSGHHPSFAQALETSMVCEIPFETLDDLSGKMPNLRQQMMRLMSGEIKGDQDMILLLSKKNAEERLAAFIYNLSRRFAQRGFSPREFRLTMTRGDIGNYLGLTVETISRLLGRFQKSGMLAVKGKYITIENNDALAQLAGHTRNVA,not soluble
17,MEQTLKITSVLSDPTRFHIYEYIAKVHREVSVQEIAEKFHIHPNVARLHLTKLEDVRMVVSDTQKTGKGGRPSRLYRLSDEVIGLYFPFRDYQLLARIAIQTMAKLGPIGSEALRETGKRFGRELIASRLPHNGAASALTMADKIAIMEEAAEAAGFLPQLHYDEEKGVLYLDIFNCPFKEIAAQAPDTVCGMHHSFLEGMVETLFAGAEVTETENMMEGSHRCAYRIVIRP,not soluble
18,MKLAVYSTKQYDKKYLQQVNESFGFELEFFDFLLTEKTAKTANGCEAVCIFVNDDGSRPVLEELKKHGVKYIALRCAGFNNVDLDAAKELGLKVVRVPAYDPEAVAEHAIGMMMTLNRRIHRAYQRTRDANFSLEGLTGFTMYGKTAGVIGTGKIGVAMLRILKGFGMRLLAFDPYPSAAALELGVEYVDLPTLFSESDVISLHCPLTPENYHLLNEAAFEQMKNGVMIVNTSRGALIDSQAAIEALKNQKIGSLGMDVYENERDLFFEDKSNDVIQDDVFRRLSACHNVLFTGHQAFLTAEALTSISQTTLQNLSNLEKGETCPNELV,soluble
19,MLSAFTPRPLKRLFTANQCWTSFLDAGGLRDIEVEAVTKMLACGTRILGVKEYICDKPECPHVRYVTNSCGSRACPSCGKKATDLWIATQLNRLPDCDWVHLVFTLPDTQWPVFESNRWLLNDVCRLAVENLLYAARKRGQEPGIFCAIHTYGRRLNWHPHVHVSVTCGGLNKHGQWKKLSFLKDAMRSRWMWNMRQRLLKAWSEGLAMPESLSHITTESQRRSLVLKAGGKYWHVYMSKKTAGGRNTARYLGRYLKKPPIAASRLAHYNGGGA,not soluble
20,MGSDKIHHHHHHMGELTIAKSAGFCFGVTRAVNMVYEAIEKENVPIYTYGPIIHNDEVVKDMEKNGVTVINDLDELSSHEKGVMIIRSHGISKAEYDRIKNCGFEVLNATCPFVSKIHRYVEDYSSKGYDIIIVGSPKHPEVCGIKGWADEKCHVTIINSPEDAENYMKNSTKKLCIVSQTTFNYNKFQDIVEIIAKKGYDITVLNTICNATEVRQTEARKVAQCSDVMIVIGDRHSSNTQKLFEICKNECKNTYYIQTSDEMDYTQIRSNNNVGITAGASTPNNIIEEVSKNVRNEL,not soluble
21,MGSDKIHHHHHHMAQVDLLNVKGEKVGTLEISDFVFNIDPNYDVMWRYVDMQLSNRRAGTASTKTRGEVSGGGRKPWPQKHTGRARHGSIRSPIWRHGGVVHGPKPRDWSKKLNKKMKKLALRSALSVKYRENKLLVLDDLKLERPKTKSLKEILQNLQLSDKKTLIVLPWKEEGYMNVKLSGRNLPDVKVIIADNPNNSKNGEKAVRIDGLNVFDMLKYDYLVLTRDMVSKIEEVLGNEAGKALTA,not soluble
